Source: patent publication US20180055768A1 (Harvard, published 2018)

Biological target: T1, FLAG-tagged wild-type (wt) ARRDC1 (Homo sapiens, UniProt Q8N5I2 1-433)
T1 construct: Expressed in 293T cells and immunoprecipitated with anti-FLAG; also called Flag-ARRDC1; arrestin domain-containing protein 1; not shown: FLAG tag
T1 sequence: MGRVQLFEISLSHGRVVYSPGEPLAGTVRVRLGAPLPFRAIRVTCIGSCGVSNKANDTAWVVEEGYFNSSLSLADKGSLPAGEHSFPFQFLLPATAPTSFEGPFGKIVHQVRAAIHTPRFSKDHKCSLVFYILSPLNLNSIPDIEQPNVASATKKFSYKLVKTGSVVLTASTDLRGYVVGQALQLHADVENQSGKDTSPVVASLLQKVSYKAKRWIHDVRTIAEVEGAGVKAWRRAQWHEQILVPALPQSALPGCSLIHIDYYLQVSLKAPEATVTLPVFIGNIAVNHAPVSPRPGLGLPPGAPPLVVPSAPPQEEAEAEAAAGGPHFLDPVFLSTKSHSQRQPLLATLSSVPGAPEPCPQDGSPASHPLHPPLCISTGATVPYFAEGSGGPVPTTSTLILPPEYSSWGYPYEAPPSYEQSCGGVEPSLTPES
Test: co-immunoprecipitation from transfected 293T cells, Western blot (FIG. 1D)

B1: HA-tagged mutant (M95A) TSG101 (other)
chain: MAVSESQLKKMVSKYKYRDLTVRETVNVITLYKDLKPVLDSYVFNDGSSRELMNLTGTIPVPYRGNTYNIPICLWLLDTYPYNPPICFVKPTSSATIKTGKHVDANGKIYLPYLHEWKHPQSDLLGLIQVMIVVFGDEPPVFSRPISASYPPYQATGPPNTSYMPGMPGGISPYPSGYPPNPSGYPGCPYPPGGPYPATTSSQYPSQPPVTTVGPSRDGTISEDTIRASLISAVSDKLRWRMKEEMDRAQAELNALKRTEEDLKKGHQKLEEMVTRLDQEVAEVDKNIELLKKKDEELSSALEKMENQSENNDIDEVIIPTAPLYKQILNLYAEENAIEDTIFYLGEALRRGVIDLDVFLKHVRLLSRKQFQLRALMQKARKTAGLSDLY
notes: Expressed in 293T cells; also called TSG101 M95A; not shown: HA tag
- binding result: no binding
